Source: article PMC2978359

What was measured:
MBD of MeCP2 (wild type) [1] = molecular target: T1, MBD of MeCP2 (wild type) (human/mouse (residues 76-167 identical), UniProt P51608 76-167); assay: EMSA/T4 endonuclease V
MBD of MeCP2 (wild type) [2] = molecular target: T1, MBD of MeCP2 (wild type); assay: EMSA/T4 endonuclease V; remark: listed apart in the source
MBD of MeCP2 (wild type) [3] = molecular target: T1, MBD of MeCP2 (wild type); assay: EMSA
MBD of MeCP2 (wild type) [4] = molecular target: T1, MBD of MeCP2 (wild type); assay: EMSA; remark: listed apart in the source
MBD of MeCP2 (wild type) [5] = molecular target: T1, MBD of MeCP2 (wild type); assay: EMSA; remark: listed apart in the source

T1 sequence (P51608 76-167): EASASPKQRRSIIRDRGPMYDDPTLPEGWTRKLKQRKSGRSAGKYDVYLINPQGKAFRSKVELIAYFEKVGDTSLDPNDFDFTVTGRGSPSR

B1: T=TmCG•mCGAA CPD duplex (dsDNA)
DNA 1: TAGAAGAATTTCGTTCCAGA
DNA 2: TCTGGAACGAAATTCTTCTA
modifications: 5-methyl-dC at strand 1 pos 12 and strand 2 pos 8; cis-syn CPD between T10 and T11
- Kd (MBD of MeCP2 (wild type) [1]): 13 ± 3 nM

B2: CmCG•mCGG duplex (BDNF promoter III) (dsDNA)
DNA 1: TAGAAGAATTCCGTTCCAGA
DNA 2: TCTGGAACGGAATTCTTCTA
modifications: 5-methyl-dC at strand 1 pos 12 and strand 2 pos 8
- Kd (MBD of MeCP2 (wild type) [2]): 46 ± 26 nM
- Kd (MBD of MeCP2 (wild type) [3]): 12.5 ± 3.5 nM

B3: TmCG•mCGA duplex (dsDNA)
DNA 1: TAGAAGAATTTCGTTCCAGA
DNA 2: TCTGGAACGAAATTCTTCTA
modifications: 5-methyl-dC at strand 1 pos 12 and strand 2 pos 8
- Kd (MBD of MeCP2 (wild type) [2]): 75 ± 35 nM
- Kd (MBD of MeCP2 (wild type) [4]): 35 ± 9 nM

B4: T=TTmCG•mCGAAA CPD duplex (dsDNA)
DNA 1: TAGAAGAATTTCGTTCCAGA
DNA 2: TCTGGAACGAAATTCTTCTA
modifications: 5-methyl-dC at strand 1 pos 12 and strand 2 pos 8; cis-syn CPD between T9 and T10
- Kd (MBD of MeCP2 (wild type) [1]): 47 ± 14 nM

B5: C=mCG•mCGG CPD duplex (dsDNA)
DNA 1: TAGAAGAATTCCGTTCCAGA
DNA 2: TCTGGAACGGAATTCTTCTA
modifications: 5-methyl-dC at strand 1 pos 12 and strand 2 pos 8; cis-syn CPD between C11 and mC12
- Kd (MBD of MeCP2 (wild type) [1]): 11 ± 3 nM

B6: CmCG•mCGG in AT tract (dsDNA)
DNA 1: TTATTTTTATCCGTTTTTAATTAT
DNA 2: ATAATTAAAAACGGATAAAAATAA
modifications: 5-methyl-dC at strand 1 pos 12 and strand 2 pos 12
- Kd (MBD of MeCP2 (wild type) [5]): ~15 nM

B7: CTG•mCGG single-mismatch duplex (dsDNA)
DNA 1: TAGAAGAATTCTGTTCCAGA
DNA 2: TCTGGAACGGAATTCTTCTA
modifications: 5-methyl-dC at strand 2 pos 8
- Kd (MBD of MeCP2 (wild type) [4]): 66 ± 22 nM
